Results reported in the supplement of paper PMC10266784.

B1: library; numbered along this chain (parent)
chain: MAAAAAAAAEQQSSNGPVKKSMREKAVERRSVNKEHNSNFKAGYIPIDEDRLHKTGLRGRKGNLAICVIILLFILAVINLIITLVIWAVIRIGPNGCDSMEFHESGLLRFKQVSDMGVIHPLYKSTVGGRRNENLVITGNNQPIVFQQGTTKLSVENNKTSITSDIGMQFFDPRTQNILFSTDYETHEFHLPSGVKSLNVQKASTERITSNATSDLNIKVDGRAIVRGNEGVFIMGKTIEFHMGGNMELKAENSIILNGSVMVSTTRLPSSSSGDQLGSGDWVRYKLCMCADGTLFKVQVTSQNMGCQISDNPCGNTH

Variants of: B1
Experiment: SGCB cell-surface expression functional score (HA stain, bin4 vs bin1, normalised to synonymous) (log10 ratio); higher = more cell-surface SGCB (functional)
Procedure, shortened: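 Sorting and sequencing yield the functional score, defined as the log ratio of a variant's highest-bin frequency to its lowest-bin frequency, with the median taken over codons and replicate transductions. The libraries, codon-saturation sets of HA-tagged, YFP-fused human beta-sarcoglycan, went into HEK293 cells stably carrying alpha-, gamma- and delta-sarcoglycan by duplicate lentiviral transduction at MOI <0.1. Cells were stained on ice with Alexa Fluor 647 anti-HA, fixed and split into four 5% intensity bins, and synonymous variants were scaled per section to mean 0, SD 0.5.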

SGCB cell-surface expression functional score (log10) of substitutions, site by site:
V195: D -2.29, A 0.11, Y -2.58, N -1.73, R -1.37, S -0.44, E -0.23, Q -1.76, P -1.1, H -1.52, M -0.5, L -0.39, G -1.83, K -1.88, T -0.23, W 0.45, C 0.64, I 0.09, F -1.74
Y184: R -1.19, S -1.04, Q -0.78, T -1.17, V -2.52
G194: W 0.23, I -1.66, C -0.15, D 0.64, H 0.27, Y -1.13, V -1.31, R -0.07, E -0.09, N 0.05, K 0.01, P -0.58, L -1.02, T -0.71, F -0.14, M -1.78, S 0.34, A -0.67, Q 0.38
L198: D -2.43, S -1.39, H -0.37, T -2.13, V -0.55, R -2.21, A -1.81, K -1.58, M -0.81, I -0.47, Q -1.42, P -1.18, Y -1.67, G -1.98, C -0.88, W -0.6, F 0.25, N -1.95, E -2.32
V200: K -2.94, A -0.04, G -1.65, Q -0.73, D -1.23, R -1.87, P -1.16, S -1.59, T -2.11, L -0.58, H -2.51, M -0.63, Y -1.16, C -1.14, W -1.75, E -2.93, I 0.17, N -3.23, F -1.83
F189: W -1.38, Y -0.98, T -1.23, A -0.91, R -2.1, I -1.15, K -2.58, G -1.93, M -0.25, C -1.67, S -1.1, H -1.03, E -1.49, V -1.22, Q -1.04, P -0.39, D -1.52, L -0.46, N -2.42
H187: N -0.57, V 0.03, D 0.45, Y -0.18, C 0.07, K -0.37, P -1.29, Q -0.38, L -1.47, I -0.51, T -1.03, M -0.22, F -0.63, W 0.48, A -0.81, G -1.69, R -0.76, S -0.12, E 0.18
E185: V -0.42, L -0.11, D 0.34, K -0.01, S 0.53, Y 0.02, A 0.2, G -0.26, M -1.36, Q -0.17, N -0.3, T -1.1, W -0.87, H -1.02, I -0.23, F -0.44, P 0.33, R -0.63, C 0.41
N199: T 0.07, V 0.22, Q 0.86, D 0.38, R -0.3, I -0.28, K 0.02, M -0.42, Y -0.67, A -0.02, W 1.05, S 0.26, L -0.05, E -0.68, H 0.18, P -1.11, F 0.74, G -0.38, C -0.28
L191: S -1.19, N -2.28, E -1.09, V -0.49, A -1.71, Q -1.1, D -1.17, G -1.07, C -0.5, F -0.08, R -1.37, H -1.37, T -1.31, P -1.47, Y -1.61, M 0.28, I -0.16, W -0.06, K -0.32
T186: L -0.15, I 0.3, D 0.53, K 0.28, C -0.92, R 0.06, A 0.54, F -0.05, S -0.18, H 0.62, P -1.73, W -1.12, G -0.44, M -1.55, N -0.55, E 0.13, V -0.85, Q 0.7, Y 0.08
P192: W -1.19, T -1.46, N -1.53, V -1.19, K -1.31, L -1.17, F -0.5, D -1.49, E -1.13, C -0.78, Y -1.09, H -1.15, I -2.12, R -1.04, Q -2.22, M -1.22, S -0.21, G -0.57, A -1.12
E188: Q 0.29, A -1.13, T -0.38, K -0.62, F -1.65, H -0.17, R -0.8, W -0.68, I -1.93, N -0.55, C -1.07, G -0.55, Y -1.16, M -2.13, L -1.16, S -0.61, V -0.11, D -0.04, P -0.15
Q201: T -0.09, V 0.47, C 0.43, Y -0.31, I 0.46, P -0.23, R 0.39, M 1.02, H 0.31, E 0.21, N -0.7, W -0.32, K 0.07, G 0.18, S -0.35, D -0.56, A 0.62, F 0.62, L -0.33
S193: F 0.83, R 0.17, Y -0.19, K 0.33, A 0.18, N 0.79, W -1.15, P -0.22, E 1.32, I 0.78, M -0.52, H 1.59, L 0.22, V 0.52, C 0.3, T -0.16, G 0.24
K196: R 0.33, S -0.1, G -0.43, M 0.21, L -0.57, T -0.64, Q 0.02, V -0.07, I -0.46, H 1.37, A 0.53, D -2.29, F -0.74, P -0.01, W -0.69, C -0.14, Y -1.19, E -0.37, N -0.02
S197: H -0.72, N -0.61, D -0.76, T -0.2, G -0.19, F -2.04, A -0.6, Y -1.16, W 0.4, C 0.14, I -0.04, L 0.24, P -2.03, V 1.76, Q 0.43, M -1.08, E -0.43, R -0.6, K -0.3
K202: C -0.1, G -0.02, A -0.2, H -1.29, I -0.27, F -1.04, E -0.96, D -1.97
H190: F 0.15, N 0.89, L -0.13, C -0.62, Q 0.16, P 0.42, S 0.28, D -0.59, I -0.36, T 0.55, E -0.09, K 0.07, M -0.84, R 0.34, V -0.28, W -0.79, Y 0.55, G 0.07, A -0.38
